Source: patent publication EP4628506A1, “PREPARATION METHOD FOR AND USE OF CD70-SPECIFIC INTEGRATED DIAGNOSIS AND TREATMENT MOLECULAR IMAGING PROBE” (Renji Hospital, Shanghai Jiao Tong University School of …, priority 2022, dated 2024)

Experiments:
[1] = target: T1, extracellular domain of human recombinant CD70 (human, UniProt P32970 39-193); assay: SPR (Biacore), CD70 extracellular domain immobilised, nanobody as mobile phase
T1 construct: extracellular domain; Immobilised on Biacore chips; also called human CD70; CD27 ligand
T1 sequence (looked up): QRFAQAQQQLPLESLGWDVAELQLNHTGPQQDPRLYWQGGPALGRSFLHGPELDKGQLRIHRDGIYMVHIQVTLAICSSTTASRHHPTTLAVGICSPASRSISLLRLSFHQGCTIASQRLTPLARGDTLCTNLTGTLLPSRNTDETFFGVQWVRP

[2] = target: T2, recombinant human serum albumin (human, UniProt P02768 25-609); assay: SPR (Biacore), recombinant human serum albumin immobilised, fusion protein as mobile phase
T2 construct: Immobilised on Biacore chips
T2 sequence (P02768 25-609 limits assumed): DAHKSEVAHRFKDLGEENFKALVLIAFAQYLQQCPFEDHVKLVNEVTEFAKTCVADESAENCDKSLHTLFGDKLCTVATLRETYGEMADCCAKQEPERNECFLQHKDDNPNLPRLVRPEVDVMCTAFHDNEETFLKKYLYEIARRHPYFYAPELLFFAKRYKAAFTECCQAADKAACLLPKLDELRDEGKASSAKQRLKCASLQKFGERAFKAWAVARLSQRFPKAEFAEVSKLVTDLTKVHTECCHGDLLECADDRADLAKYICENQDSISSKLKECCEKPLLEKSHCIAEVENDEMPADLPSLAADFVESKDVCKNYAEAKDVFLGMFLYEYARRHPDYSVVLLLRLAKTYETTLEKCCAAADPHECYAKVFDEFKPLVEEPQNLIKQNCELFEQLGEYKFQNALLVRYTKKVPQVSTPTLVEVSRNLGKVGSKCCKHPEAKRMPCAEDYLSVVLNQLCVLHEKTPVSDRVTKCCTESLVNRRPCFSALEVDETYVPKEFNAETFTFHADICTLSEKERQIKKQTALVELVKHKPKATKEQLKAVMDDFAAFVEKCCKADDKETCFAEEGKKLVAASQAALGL

[3] = target: T1, extracellular domain of human …; assay: SPR (Biacore), CD70 extracellular domain immobilised, fusion protein as mobile phase
[4] = target: T3, recombinant murine serum albumin (murine, UniProt P07724 25-608); assay: SPR (Biacore), recombinant murine serum albumin immobilised, fusion protein as mobile phase
T3 construct: Immobilised on Biacore chips

RCC models (No. 62 PDX) = system: RCC models (No. 62 PDX); design: species or system mice; conditions: mouse, in vivo
Text: Renal cell carcinoma (RCC) patient-derived xenograft (PDX) models, No. 62 PDX, positive in expression of CD70 were identified by immunohistochemical (IHC) staining using an antihuman CD70 monoclonal antibody (E3Q1A, 69209, Cell Signaling Technology) as a primary antibody, as shown in FIG. 3. RCC PDX models were established by subcutaneously inoculating 2mm×2mm×2mm No. 62 PDX tissue chunks into right shoulder of NCG (NOD-Prkdcem26Cd52Il2rgem26Cd22/Nju) mice.
PET/CT images of small animals involved in these tests were all captured using an IRIS small-animal PET/CT scanner (Inviscan Imaging Systems). Each murine model (three in each group) was injected with 3.7-7.4 MBq of [^68Ga]Ga-NOTA-B3 or [^68Ga]Ga-NOTA-B6 via the tail vein. One hour after the injection, the mice were anesthetized with isoflurane mixed in oxygen (at a concentration of 2%). After being deeply anesthetized, the mice were placed supine on the PET/CT scanning bed, and PET and CT images were captured sequentially. […]
The same operations as in step 2) above were performed. […] ROI uptake in the tumor and major tissues and organs (heart, liver, lungs, kidneys, muscles, spleen and bones) was analyzed and plotted against time. […]

Row | Molecule | Kd [1] [nM] | Kd [2] [nM] | Kd [3] [nM] | Kd [4] [nM] | uptake in the major excretory (kidneys) and metabolic (liver) organs (RCC models (No. 62 PDX))
1 | CD70-specific nanobody B3 (VHH, Monovalent nanobody expressed in E. coli from pET-30a(+); any vector-derived tag is not described) VHH: QVQLQESGGGSVQAGGSLRLSCAASGIIVNDGCMAWFRQVPGKEREGVAGIVIGEYGGGTTYYADSVKGRFTISRDRAKNTLYLQMNSLKPEDTAMYYCAADQWASGGCTSIATFSDEFDYWGQGTQVTVSS | 5.69 |  |  |  | 
2 | CD70-specific nanobody B6 (VHH, Monovalent nanobody expressed in E. coli from pET-30a(+); any vector-derived tag is not described) VHH: QVQLQESGGGSVQAGGSLRLSCVASDLIVNDGCMAWFRQVPGKEHEGVARIAIPTTPGSTLYADSVKGRFTISRDGAKNTLYLQMNSLKPEDTAVYYCAADQWASRGCTAIATIPAEFDYWGQGTQVTVSS | 3.73 |  |  |  | 
3 | CD70-specific nanobody fusion protein ABDB3 (other, 5) HHHHHHQVQLQESGGGSVQAGGSLRLSCAASGIIVNDGCMAWFRQVPGKEREGVAGIVIGEYGGGTTYYADSVKGRFTISRDRAKNTLYLQMNSLKPEDTAMYYCAADQWASGGCTSIATFSDEFDYWGQGTQVTVSSGGGGSGGGGSGGGGSLAEAKVLANRELDKYGVSDFYKRLINKAKTVEGVEALKLHILAALPGGGGSLLQS |  | 0.0742 | 0.11 | 0.38 | 
4 | CD70-specific nanobody fusion protein ABDB6 (other, 7) HHHHHHQVQLQESGGGSVQAGGSLRLSCVASDLIVNDGCMAWFRQVPGKEHEGVARIAIPTTPGSTLYADSVKGRFTISRDGAKNTLYLQMNSLKPEDTAVYYCAADQWASRGCTAIATIPAEFDYWGQGTQVTVSSGGGGSGGGGSGGGGSLAEAKVLANRELDKYGVSDFYKRLINKAKTVEGVEALKLHILAALPGGGGSLLQS |  | 0.0885 | 0.135 | 0.454 | 
5 | [^68Ga]Ga-NOTA-B6: human CD70-specific 68Ga-labeled monovalent nanobody probe, B6 modified with p-SCN-Bn-NOTA (conjugate) VHH: QVQLQESGGGSVQAGGSLRLSCVASDLIVNDGCMAWFRQVPGKEHEGVARIAIPTTPGSTLYADSVKGRFTISRDGAKNTLYLQMNSLKPEDTAVYYCAADQWASRGCTAIATIPAEFDYWGQGTQVTVSSGGGGSGGGGSLLQSHHHHHH |  |  |  |  | high nonspecific uptake
